The series is described as follows: yeast display, Sf9 membrane polyspecificity reagent, FACS + sequencing; frameworks hold sequencing errors. In short, it runs like this: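 Galactose-induced (36–48 hours) yeast carrying a synthetic nanobody display library were exposed to 10% biotinylated, detergent-solubilized Sf9 membrane reagent at 4 °C for 1 hour. FACS followed streptavidin microbead enrichment, using low and high (top ~1%) gates for expression (anti-HA) and reagent binding (streptavidin). Colony PCR, MiSeq 2 × 250 sequencing and CDR-length filtering followed. Labels for polyreactivity reflect the gate of origin.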
On to “QVQLVESGGGLVHAGGSLRLSCAPSGSIFGPYAMGWYIQAPGKERELVAAIRSGGSTNYADSVKGRFTISRDNAKNTVYLQMNSLKPDDTSVYYWAGEYWGYPYDYWGQGTQVTVSS”, for which the “polyreactivity (PSR sort gate)” value is “low polyreactivity”. On to “QVQLVESGGGLVHAGGSLRLSCASSGSIFIRNAMGWYRQAPGKERELVASISRSGASTRYADSVKGLFTISRDNAKNTVYLQMNSLNPEDTAVYYCNDVIRRYFVPSSYDYWGQGTQVTVSS”, for which the “polyreactivity (PSR sort gate)” value is “high polyreactivity”. Next, “QVQLVESGGGLVHAGGSLRLSCPADGSTFVLNAIGWYRQAPGKERQLVAGISYGTGSTYYADSVKGRFTISRDHAKNTVYLQMNSLKPEDTAVYYCATDFDGYSIGMYYWGQGNQVTVSS”: “low polyreactivity”; “QVQLVESGGGLVHAGGSLRLSCSASGYTFAYNAMGWYRQAPGKERELVAAITSRAGSTHYADSVKGRFTISRDNAKNTVYLQMNSLKPEDTAVYYCAAKRYNRLRSYRYSDREDYWGQGTQVSVSS”: “high polyreactivity”. In the case of “QVQLVESGGGLVHAGGSLRLSCSASRFIFDKNSMGWYIQAPGKERELVAAISYGDGRTYYADSVKGRFTISRDNAKNTVYLHMNSLKPEDTEVYYCNTDAKRYIRIYWGQGTQVTVSS” it was “high polyreactivity”; in that of “QVQLVESGGGLVHAGGSLSLSCAASGSTFKDYAMGWYRQAPGKERELVAAISKGATRTYYADSVKGRFTISRDNAKITVYLQINSLKPEDTAVYYCAADRLKFRGEYDYWGQGSQVTVSS”, “high polyreactivity”; in that of “QVQLVESGGGLVHAGRSLLLSCAASGRTYRLDAMGWYRQSPGKERELVAAITRGGRTNYADSVKGRFTISRDNAKNTFYLQMNSLKPEDTAVYYCADRYVERPTDYYYWGQGTQVTVSS”, “low polyreactivity”. Next, “QVQLVESGGGLVHAGVSLRLSCAASGIIFAHYAKGWYRQAPGKERELVAAISSSGATTYYADSVKGRFTISRDNAKNTVYLQMNSLKPEDTAVYYCNTETYHVRRLFDYWGQGTQVTVSS”: “low polyreactivity”; “QVQLVESGGGLVHGGGSLRLSCAASGSILHYNTMGWYRQAPGKEREFVASISYSGGSTYYADSVKGRFTISRDNAKNTVYLQMNSLKPEDTAVYYCATEGMDFWFIYYYWGQGTQVTVSS”: “low polyreactivity”; “QVQLVESGGGLVHPGGSLRLSCDASGLILDGYAMGWYRQAPGKERELVAAITRSGGRTYYADSVKGRFTISRDNAKNTVNLQKNRQKPVDTAVYHSAALGWSGRYRYDYWGQGTQVTVSS”: “high polyreactivity”. On to “QVQLVESGGGLVKAGGILSLSCAASGRTFAFYGMGSYRQAPGKERELVATIRGTGGSTYYADSVKGRFTISRDNAKNTVYLQMNSLKPEDTAVYYCAAVNRRYPRYDYWGLGTQVTVSS”, for which the “polyreactivity (PSR sort gate)” value is given as “high polyreactivity”. “QVQLVESGGGLVKAGGSLRLICAAYGRIFALYAMGWYRHAPGKERELVAAINNGASTNYADSVKWRFTISRDNAKNTVYVQMNSLKPEDTAVYYCAVRAARSGQRFYSWGQGTQVTVSS”: the “polyreactivity (PSR sort gate)” value is “high polyreactivity”. Next, “QVQLVESGGGLVKAGGSLRLRCAASGITFRYNAMGWYRQAPGKERELVAAITSSGGRTYYADSVKGRFTISRDNAKNTVYLQMNSLKPEDTAVYYCAARTRYRKEYDYWGQGTQVTVSS”: “high polyreactivity”; “QVQLVESGGGLVKAGGSLRLSCAASGFTFAYYAMGWYRQAPGKERELVAAISGSGGSTYYADSVKGRFTISRDNAKNTVYLQMNSLKPEDTAVYYCAAARRSTWSYSYYWGQGTQVTVSS”: “high polyreactivity”; “QVQLVESGGGLVKAGGSLRLSCAASGFTFPQYAMGWYRQAPGKERELVAAISKRSVGTRYADSVKGRFTISRDNAKNTLYLQMNSLKPEDTAVYYCNKYGQVPGYFSLDYWGQGTQVTVSS”: “high polyreactivity”. In the case of “QVQLVESGGGLVKAGGSLRLSCAASGFTYSTYAMGWYRQAPGKEREFVAAISRSGGSTYYADSVKGRFTISRDNAKNTVYLQMNSLKPEDTAVYYCAVRPYRSAGGSVTRGAYYYWGQGTQVTVSS” it was “high polyreactivity”; in that of “QVQLVESGGGLVKAGGSLRLSCAASGITFYIYDMGWYRQAPGKERELVATISWSDGRTYYADSVKGRFTISRDNAKNTVYLQMNSLKPEDTAVYYCASDWWYYQFDYEYWGQGTQVTVSS”, “low polyreactivity”; in that of “QVQLVESGGGLVKAGGSLRLSCAASGLISWLYVMGWYRQAPGKERELVAAIRYSGGRTYYADSVKGRFTISRDNAKNTVYLQMHSMKPEDTAVYYCNALPWALYDSTSIYYYWGQGTQVTVSS”, “low polyreactivity”.

In the case of “QVQLVESGGGLVKAGGSLRLSCAASGRIFRYYVMGWYRQAPGKERELVASISWRGTSTYYADSVKGRFTISRDNAKNTVYLQMNSLKPEDTAVYYCNAARPGKNYDSWGQGTQVTVSS”, the “polyreactivity (PSR sort gate)” value is reported as “high polyreactivity”. “QVQLVESGGGLVKAGGSLRLSCAASGRIFSRNAMGWYRQAPGKERELVAAITRRGGNTYYADSVKGRFTISRDNAKNTVYLQMNSLKPEDTAVYYCATRRYYQRWSPGYDYWGQGTQVTVSS”: the “polyreactivity (PSR sort gate)” value is recorded as “high polyreactivity”. In the case of “QVQLVESGGGLVKAGGSLRLSCAASGRIFWAYAMGWYRQAPGKERELVAAINSGGRTYYADSVKGRFTISRDNAKNTVYLQMNSLKPEDTAVYYCAAAGVYSSDYWGQGTQVTVSS” it was “low polyreactivity”. In the case of “QVQLVESGGGLVKAGGSLRLSCAASGRTFGSYAMGWYRLAPGTERELVAAITGSGAGTYYADSVKGRFTISRDNAKNTVYLQMNSLKPEDTSVYYCAARRPWQFYYWVQGTQVTVSS” it was “high polyreactivity”; in that of “QVQLVESGGGLVKAGGSLRLSCAASGRTFGWYVMGWYRQAPGKEMELVAAISLRGGTTYYADSVKGRFTISRDNAKNTVYLQMNSLNPEDTAVYYCAIAGIRHVTCKFKGYHFGYWGQGTQVTVSS”, “low polyreactivity”.

In the case of “QVQLVESGGGLVKAGGSLRLSCAASGRTFGYNAMGWYRQAPGKEREFVAAISWSGGRTYYADSVKGRFTISRDNAKNTVYLQMNSLKPEDTAVYYCAAAAPHLSAKMDYWGQGTQVTVSS”, the “polyreactivity (PSR sort gate)” value is reported as “low polyreactivity”. Next, “QVQLVESGGGLVKAGGSLRLSCAASGRTFLRNAMGWYRQAPGKERELVATITRGGSTYYADSVKGRFTISRDNAKNTVYLQMNSLKPEDTAVYYCAKDITGCFRRPDYGYWGQGTQVTVSS”: “low polyreactivity”; “QVQLVESGGGLVKAGGSLRLSCAASGRTFQVYDMGWYRQAPGKERELVAGITRAGSTYYADSVKGRFTISRDNAKNSVYLQMNRLKPEDSAVYYCAASRWHGYNYWGQGTQVTVSS”: “high polyreactivity”; “QVQLVESGGGLVKAGGSLRLSCAASGRTFRDNAMGWYIQAPGKERELVADIDIDSSTYYADSVKGRFTISRDNAKNTVYLQMNSLKPEDTAVYYCAATFTYLGYWYDYWGQCTQVTVSS”: “low polyreactivity”.

For the sequence “QVQLVESGGGLVKAGGSLRLSCAASGSIFAFYAMGWYRPAPGKERELVAAINSGGGRTYYEDSVKGRFTISRDNAKYTVYLQMNSLKPEDTAVYYCAARTIHGSNRSYYWGQGTQVTVSS”, the “polyreactivity (PSR sort gate)” value is reported as “high polyreactivity”. Next, “QVQLVESGGGLVKAGGSLRLSCAASGSIFRYYTMGWYRQAPGKEWELVAAINGSGGSTYYADSVKGRFTISRDTAKNTVYLQMNSLKPEDTAVYYCNRVTKEYGLRQYYYWGQGTQVTVSS”: “low polyreactivity”. Take “QVQLVESGGGLVKAGGSLRLSCAASGSMFWSYAMGWYRQAPGKERELVAAISSGGSTNYADTVKGRFTISRDNAKNTVYLQMNSLKPEDTAVYYCSARFYTTCVRRKRYDYWGQGTQVNVSS”: the “polyreactivity (PSR sort gate)” value was “high polyreactivity”.

For the sequence “QVQLVESGGGLVKAGGSLRLSCAASGSTFTYYAMGWYRQAPGKERELVARITWTGGRTYYADSVKGRFTISRGNAKNTVYLQMNSLKPEDTAVNYCNALPYFYETQYDYWGQGTQVTVSS”, the “polyreactivity (PSR sort gate)” value is listed as “low polyreactivity”. Next, “QVQLVESGGGLVKAGGSLRLSCASSGYIFPFNAMGWYRQAPGKERELVAAITNGGRTYYADSVKGRFTISRDNAKNTVYLQMNSLKPDDTSVYYCAAGSKSDMDWGQGTQVTVSS”: “low polyreactivity”; “QVQLVESGGGLVKAGGSLRLSCDASGRIFKYYAMGWYRPAPGKEWELVAAISSVGYTNYADSVKGRFTISRDNAKNTVYLQLNSLKPEDTAVYYCAAPYQHYDVNYDSWGQGTQVTVSS”: “low polyreactivity”. “QVQLVESGGGLVKAGGSLRLSSAASGYNTNTYAMGWYRQAPGKERELVAAISGSGGSTYYADSVKGRFTMSRDNAKTTVYLQMNSLKPEDTAVYYCNVVVRYPSAYDYWGQGTQVTVSS”: the “polyreactivity (PSR sort gate)” value is reported as “high polyreactivity”. Next, “QVQLVESGGGLVKAVGSLRLSCAPSGRISGVYAMGWYRQAPGKERELVAAISWSGGPTYYADSVKGRFTISRDNAKNTFYLEMTSLKPEDTAVYYCNGDTGFRSYLRVYWGQGTQVTVSS”: “low polyreactivity”. As for “QVQLVESGGGLVKEGGSLRLSSAASGSTNRYYAMGLYRQAPGKERELVAGITTGGGRTYYADSEKGRFTISRDNAKYTVYLQMTSLKPEDTAVYYCAADRLSHYWYRISYDYWGQCTQVTVSS”, the “polyreactivity (PSR sort gate)” value is given as “high polyreactivity”. For “QVQLVESGGGLVKSGGSLRLSCAASGRIFYLYAMGWYRQAPGKERELVAAISRRGGGTSYADSVKGRFTISRDNAKNTVYFQMNSLKPEDTAVYYCNTAYSLGGYWGQGTQVTVSS”, the “polyreactivity (PSR sort gate)” value is “high polyreactivity”. On to “QVQLVESGGGLVLAAGSLRLSCAASGFIFGSYAMGWYRQAPGKERELFAAISRSGGRTYYADSVKGRFTISRDNAKNTVYLQMNSLKPEDTAVYYCAAVHLLVYPTYDYWGQGTQVTVSS”, for which the “polyreactivity (PSR sort gate)” value is reported as “high polyreactivity”. Next, “QVQLVESGGGLVLAGGRLRLSCAASGFTLDYYTMGWYRLAPGKEREFVAAITRRTGNTYYADSVKGRFTISRDNEKITVYLQMNSLKPEDPAVYYCAATFWPWYSGITYYYWGQGTQVTVSS”: “high polyreactivity”. Next, “QVQLVESGGGLVLAGGSLRLSCAASGFIFATYAMGWYRQAPGKERVLVAAISRRGVRTNYADSVKGRFTISRDNAKNTVYLQMNSLKPEDTAVYYSNAQSHYGKIPMYYWGQGTQVTVSS”: “high polyreactivity”. In the case of “QVQLVESGGGLVLAGGSLRLSCAASGFIFSPYVRGWYRQAPGKDRELVAAISSIGGSTYYADSVKGRFTISRDNAKNTVFLQMNSLKPEDTAVYYCADSVYYYASRYDYWGQVTQVTVSS” it was “low polyreactivity”.

(Values after the nanobody polyreactivity screen of Harvey et al. (2022).)
